Measured values taken from paper PMC4453223.

Molecular target: microtubule (MT) filaments

DmK-4AA, sequence (P17210 other isoform, or with tags, fused parts or gaps): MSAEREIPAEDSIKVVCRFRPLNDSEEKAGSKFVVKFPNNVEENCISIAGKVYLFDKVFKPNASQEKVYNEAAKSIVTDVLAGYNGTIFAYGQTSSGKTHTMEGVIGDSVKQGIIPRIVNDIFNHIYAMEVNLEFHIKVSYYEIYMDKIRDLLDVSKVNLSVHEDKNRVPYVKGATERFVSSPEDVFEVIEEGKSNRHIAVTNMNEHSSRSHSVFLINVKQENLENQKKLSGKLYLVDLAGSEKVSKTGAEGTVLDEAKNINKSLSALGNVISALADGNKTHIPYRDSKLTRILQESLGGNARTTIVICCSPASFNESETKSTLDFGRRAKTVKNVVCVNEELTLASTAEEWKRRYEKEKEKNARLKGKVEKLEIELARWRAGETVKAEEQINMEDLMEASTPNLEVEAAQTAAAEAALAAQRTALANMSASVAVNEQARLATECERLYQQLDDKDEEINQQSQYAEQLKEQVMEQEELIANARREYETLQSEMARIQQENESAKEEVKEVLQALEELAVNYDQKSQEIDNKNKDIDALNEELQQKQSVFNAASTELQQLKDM

## DmK-4AA (from UniProt P17210 1-559) (domain or fragment)
  half-site mantADP release (stopped flow): share of motors releasing mantADP from both heads upon the addition of MTs: 16%
